Experimental data: the supplement of paper PMC7125110
± gives the standard error. For some assays here: This sample holds only a part of the variants without activity.

B1: glmS ribozyme (parent)
chain: AUAAAAGCGCCAGAACUACAGAAAUGUAGUUGACGAGGAGGAGGUUUAUCGAAUUUUCGGCGGAUGCCUCCAAA

Columns and labels:
Conditions in all cases: with glucosamine-6-phosphate
glucosamine-6-phosphate [1] = variants of: B1; assay: kcat; higher = faster cleavage; RNA array
In short: (§1)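 A hybridised Cy3 probe tracked barcoded ribozyme variants, transcribed in situ by E. coli RNA polymerase on sequenced MiSeq chips, at 37 °C. The variants received 40 μM to 10 mM glucosamine-6-phosphate in HEPES/KCl/Mg(OAc)2 buffer. kobs came from decay fits and kcat and KM from weighted Michaelis–Menten fits.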

glucosamine-6-phosphate [2] = variants of: B1; assay: self-cleavage kobs at 160 uM GlcN6P; higher = faster cleavage; RNA array
In short: as §1

glucosamine-6-phosphate [3] = variants of: B1; assay: self-cleavage kobs at 640 uM GlcN6P; higher = faster cleavage; RNA array
In short: as §1

glucosamine-6-phosphate [4] = variants of: B1; assay: self-cleavage kobs at 2500 uM GlcN6P; higher = faster cleavage; RNA array
In short: as §1

glucosamine-6-phosphate [5] = variants of: B1; assay: self-cleavage kobs at 10000 uM GlcN6P; higher = faster cleavage; RNA array
In short: as §1

glucosamine-6-phosphate [6] = variants of: B1; assay: KM; higher = weaker cofactor use; RNA array
In short: as §1

glucosamine-6-phosphate [7] = variants of: B1; assay: self-cleavage kobs at 40 uM GlcN6P; higher = faster cleavage; RNA array
In short: as §1

## AUAAAAGCGCCAGAACUACAGAAAUGUAGUUGACGAGGAGGAGGUUUAUCGAAUUUUCGGCGGAUCCCUACAAA [G66C C70A]
glucosamine-6-phosphate [1]
  kcat: 8.82e-05 ± 1.9e-05 s⁻¹
glucosamine-6-phosphate [2]
  self-cleavage kobs at 160 uM GlcN6P: 8.3e-05 ± 3e-05 s⁻¹
glucosamine-6-phosphate [3]
  self-cleavage kobs at 640 uM GlcN6P: 4.17e-05 ± 1.3e-05 s⁻¹
glucosamine-6-phosphate [4]
  self-cleavage kobs at 2500 uM GlcN6P: 6.82e-05 ± 1.2e-05 s⁻¹
glucosamine-6-phosphate [5]
  self-cleavage kobs at 10000 uM GlcN6P: 9e-05 ± 1.4e-05 s⁻¹

## AUAAAAGCGCCAGAACUACAGAAAUGUAGUUAACGAGGAGGAGGUUUAUCGAAUUUUCGGCGGAUGGCUCCAAA [G32A C67G]
glucosamine-6-phosphate [1]
  kcat: 0.000177 ± 2.7e-05 s⁻¹
glucosamine-6-phosphate [6]
  KM: 1890 ± 580 µM
glucosamine-6-phosphate [7]
  self-cleavage kobs at 40 uM GlcN6P: < 1e-05 s⁻¹
glucosamine-6-phosphate [3]
  self-cleavage kobs at 640 uM GlcN6P: 4.83e-05 ± 6.9e-06 s⁻¹
glucosamine-6-phosphate [4]
  self-cleavage kobs at 2500 uM GlcN6P: 9.14e-05 ± 1.2e-05 s⁻¹
glucosamine-6-phosphate [5]
  self-cleavage kobs at 10000 uM GlcN6P: 0.000164 ± 2.4e-05 s⁻¹

## AUAAAAGCGCCUGAACUACAGAAAUGUAGUGGACGAGGAGGAGGUUUAUCGAAUUUUCGGCGGAUGCCUCCAAA [A12U U31G]
glucosamine-6-phosphate [1]
  kcat: 0.0183 ± 0.0087 s⁻¹
glucosamine-6-phosphate [7]
  self-cleavage kobs at 40 uM GlcN6P: 0.000567 ± 5.6e-05 s⁻¹
glucosamine-6-phosphate [2]
  self-cleavage kobs at 160 uM GlcN6P: 0.00142 ± 0.00026 s⁻¹
glucosamine-6-phosphate [3]
  self-cleavage kobs at 640 uM GlcN6P: 0.00439 ± 0.00076 s⁻¹
glucosamine-6-phosphate [4]
  self-cleavage kobs at 2500 uM GlcN6P: 0.00841 ± 0.0023 s⁻¹
glucosamine-6-phosphate [5]
  self-cleavage kobs at 10000 uM GlcN6P: 0.0262 ± 0.0045 s⁻¹

## AUAAAAGCGCCAGACCUACAGAAAUGUAGUUGACGAGGAGGAGGUUUAUCGAAUUCUCGGCGGAUGCCUCCAAA [A15C U56C]
glucosamine-6-phosphate [1]
  kcat: 0.00118 ± 0.00019 s⁻¹
glucosamine-6-phosphate [6]
  KM: 2470 ± 690 µM
glucosamine-6-phosphate [2]
  self-cleavage kobs at 160 uM GlcN6P: 8.66e-05 ± 1.7e-05 s⁻¹
glucosamine-6-phosphate [3]
  self-cleavage kobs at 640 uM GlcN6P: 0.000202 ± 3.2e-05 s⁻¹
glucosamine-6-phosphate [4]
  self-cleavage kobs at 2500 uM GlcN6P: 0.000708 ± 9.2e-05 s⁻¹
glucosamine-6-phosphate [5]
  self-cleavage kobs at 10000 uM GlcN6P: 0.000914 ± 9.9e-05 s⁻¹

## AUAAAAGCGCCAGAACUAAAGAAAUGUAGUUGACGAGGAGGAGGUUUAUCGAAUUUUCGGCGGAUGCCUCCAAA [C19A]
glucosamine-6-phosphate [1]
  kcat: 0.0165 ± 0.0045 s⁻¹
glucosamine-6-phosphate [6]
  KM: 610 ± 220 µM
glucosamine-6-phosphate [7]
  self-cleavage kobs at 40 uM GlcN6P: 0.00101 ± 8.1e-05 s⁻¹
glucosamine-6-phosphate [2]
  self-cleavage kobs at 160 uM GlcN6P: 0.00456 ± 0.00078 s⁻¹
glucosamine-6-phosphate [3]
  self-cleavage kobs at 640 uM GlcN6P: 0.00758 ± 0.00099 s⁻¹
glucosamine-6-phosphate [4]
  self-cleavage kobs at 2500 uM GlcN6P: 0.011 ± 0.0021 s⁻¹
glucosamine-6-phosphate [5]
  self-cleavage kobs at 10000 uM GlcN6P: 0.0275 ± 0.0046 s⁻¹

## AUAAAAGCGCCAGAACUACAGAAAUGUAGAUGACGAGAAGGAGGUUUAUCGAAUUUUCGGCGGAUGCCUCCAAA [U30A G38A]
glucosamine-6-phosphate [1]
  kcat: < 1e-05 s⁻¹
glucosamine-6-phosphate [7]
  self-cleavage kobs at 40 uM GlcN6P: < 1e-05 s⁻¹
glucosamine-6-phosphate [5]
  self-cleavage kobs at 10000 uM GlcN6P: < 1e-05 s⁻¹

## AUAAAAGCGCCAGAACUACAGAAAUGUAGUUGACGAAGAGGAGGUUUAUCGGAUUUUCGGCGGAUGCCUCCAAA [G37A A52G]
glucosamine-6-phosphate [1]
  kcat: 0.000162 ± 8.6e-06 s⁻¹
glucosamine-6-phosphate [6]
  KM: 3420 ± 440 µM
glucosamine-6-phosphate [4]
  self-cleavage kobs at 2500 uM GlcN6P: 6.77e-05 ± 1.2e-05 s⁻¹
glucosamine-6-phosphate [5]
  self-cleavage kobs at 10000 uM GlcN6P: 0.000121 ± 1.5e-05 s⁻¹

## AUAAAAGCGCCAUAACUACAGAAAUGUAGUUGACGAGGAGGAGGUAUAUCGAAUUUUCGGCGGAUGCCUCCAAA [G13U U46A]
glucosamine-6-phosphate [1]
  kcat: 3.16e-05 ± 1.5e-06 s⁻¹
glucosamine-6-phosphate [6]
  KM: 479 ± 200 µM
glucosamine-6-phosphate [4]
  self-cleavage kobs at 2500 uM GlcN6P: 2.81e-05 ± 1.2e-05 s⁻¹
glucosamine-6-phosphate [5]
  self-cleavage kobs at 10000 uM GlcN6P: 2.96e-05 ± 9.4e-06 s⁻¹
